{
  "source": "paper PMC7987032",
  "about": "(medRxiv, 2021)",
  "binders": {"B1": {"name": "CV2-75 (antibody, V domains shown)", "VH": "QVQLQESGPGLVKPSETLSLTCTVSGGSISSYYWSWIRQPPGKGLEWIGYVYYSGSTNYNPSLKSRVTISVDTSKNEFSLKLSSVTAADTAVYYCASSQRPDGNLYYFDYWGQGTLVTVSS", "VL": "SYVLTQPPSVSVAPGQTARITCGGNNIGSKTVHWYQQKPGQAPVLVVYDDSDRPSGIPERFSGSNSGNTATLTISRVEAGDEADYYCQVWDSSSDHYVFGTGTKVTVL"}},
  "target": "SARS-CoV-2 RBD (SARS-CoV-2 (Wuhan-Hu-1), UniProt P0DTC2)",
  "assay": "BLI",
  "data": [
    {"binder": "B1", "values": [
      {"measurement": "binding result", "value": "binds"}
    ]}
  ]
}
